Reference: patent US20060030524A1, “Treatment of systemic lupus erythematosus by down-regulating the autoimmune response to autoantigens” (Yeda Research and Development Co. Ltd., priority 1998, published 2006)

Key:
[1] = target: T1, recombinant p53 (Mus musculus, UniProt P02340); experiment: ELISA of sera of Ab1-immunized mice for Ab3 anti-p53 antibodies; type: in vivo
T1 construct: made in house; host or cells: E. coli BL21 (DE3)
Experimental: (§1) E. coli BL21 (DE3) cells were transformed with the T7 expression vector containing mouse p53 DNA (Shohat-Foord et al, 1991). P53 was purified as described (Wolkowicz et al, 1995). All peptides, including the p53 peptide epitope of PAb-421 ([…]) (residues 364-383 of SEQ ID NO:1) were prepared using an automated synthesizer (Abimed AMS 422; Langenfeld, Germany) according to the manufacturer. Peptide purity was tested by analytical reverse phase HPLC and mass spectroscopic analysis.
(§2) ELISA assays were conducted in 96-well Maxisorp plates (Nunc, Roskilde, Denmark), which were coated with 10 μg test antigen per ml in PBS. After washing and blocking with 1% BSA in PBS for one hour at 37° C., diluted test sera (0.1 ml per well) was added for one hour at 37° C., followed by one hour incubation with goat anti-mouse IgG Fc specific, or IgG-isotype specific secondary antibodies conjugated to alkaline phosphatase, diluted 1:5000 (Jackson, Philadelphia, Pa.). A substrate solution containing 0.6 mg/ml of p-nitrophenylphosphate (Sigma, Rehovot, Israel) in diethanolamine-H2O, pH 9.8, was added, and the plates were read at 405 nm.
To test whether immunization to Ab1 could induce Ab3, immunized mice were assayed for antibodies to p53. […] However, Ab1 antibodies PAb-246 and PAb-421 induced a stronger Ab3 anti-p53 response in the BALB/c strain than they did in the C57BL/6 strain.

[2] = tested on: single-stranded calf thymus DNA; experiment: Anti-DNA ELISA of sera of Ab1-immunized mice; type: in vivo; settings: sera of BALB/c mice immunized with the Ab1
Experimental: (§3) For anti-DNA ELISA, a secondary antibody conjugated to horseradish peroxidase, and as substrate 1 mg/ml ABTS in 0.2 M citric acid, 0.2 M Na2HP04, and 3% H202 (all from Sigma) was used. The test antigens used were (Fab) 2 fragments of Ab2 anti-PAb-421, which were prepared as described (Harlow et al, 1988), recombinant p53, the p53 peptide epitope of PAb-421, histones or, after pre-coating with methylated BSA, calf thymus DNA (all from Sigma). All antibody titers are shown as the O. D. produced by the test sera at a dilution of 1:100. Dots represent individual sera, bars represent the median of each group.

[3] = tested on: BALB/c and C57BL/6 mice; experiment: Induction of SLE-like disease by Ab1 immunization (proteinuria, histology, leukocyte counts); type: in vivo
Excerpt: Paraffin sections of tissue samples were either stained with hematoxylin and eosin, or immunostained with a peroxidase-labeled anti-mouse-IgG antibody (Jackson, Philadelphia, Pa.) and DAB (Sigma) according to the manufacturer's instructions.
Proteinuria was detected with Albustix strips (Bayer, Slough, UK). Leukocytes were counted from heparinized blood following 10-fold dilution in 1% acetic acid.

[4] = tested on: histones; experiment: ELISA of sera of Ab1-immunized mice for anti-histone antibodies; type: in vivo; settings: mice immunized with Ab1, bled two weeks after second boost
Experimental: as §2, §3

[5] = tested on: native, histone-free DNA of Crithidia luciliae; experiment: Crithidia luciliae assay of sera of Ab1-immunized mice; type: in vivo; settings: sera of BALB/c mice immunized to the Ab1
Experimental: Slides with Crithidia were purchased from Immco (Buffalo, N.Y.) and incubated with the test sera according to the manufacturer's protocol.
Test sera were then examined for binding to DNA using the Crithidia luciliae assay, which detects antibodies—to native, histone-free DNA exposed at the base of the Crithidia flagellum. Both BALB/c and C57BL/6 mice immunized to […] or PAb-248 were negative for anti-DNA antibodies in the Crithidia assay, as were C57BL/6 mice immunized to PAb-421. […] The finding of positive reactivity in the Crithidia assay correlates with the clinical disease seen in the BALB/c mice. The Crithidia luciliae assay is used clinically for its diagnostic specificity for lupus in humans (Aarden et al, 1975).

[6] = target: T2, p53 peptide epitope of PAb-421 (364-383 of SEQ ID NO:1) (Mus musculus, UniProt P02340); experiment: ELISA of sera of Ab1-immunized mice for Ab3 to the p53 peptide epitope of PAb-421; type: in vivo
T2 construct: made in house; host or cells: chemical synthesis (Abimed AMS 422)
T2 sequence (P02340 364-383 limits assumed): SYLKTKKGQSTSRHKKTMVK
Experimental: as §1
ELISA assays were conducted in 96-well Maxisorp plates (Nunc, Roskilde, Denmark), which were coated with 10 μg test antigen per ml in PBS. […] A substrate solution containing 0.6 mg/ml of p-nitrophenylphosphate (Sigma, Rehovot, Israel) in diethanolamine-H2O, pH 9.8, was added, and the plates were read at 405 nm.
Because the two mouse strains differed in their Ab1 response to PAb-421, it was conceivable that they also might differ in their Ab3 response to this Ab1 antibody. The specificity of the Ab3 response was analyzed by probing test sera for antibodies to the C-terminal peptide epitope of p53 that is recognized by the inducing PAb-421 (amino acids 364-383 of SEQ ID NO:1).

[7] = tested on: p53-responsive element oligonucleotide; experiment: Band shift assay of sera of Ab1-immunized mice; type: in vivo; settings: sera of BALB/c mice immunized to the Ab1
[8] = tested on: (Fab)2 fragments of the Ab1 anti-p53 antibodies; experiment: ELISA of sera of Ab1-immunized mice for Ab2 anti-idiotypic antibodies; type: in vivo
Experimental: as §2
as §3, with “Dots represent individual sera, bars represent the median of each group.” left out
To learn whether both strains of mice responded to the Ab1 immunization by making Ab2 anti-idiotypic antibodies, the reactivity of their sera to the (Fab)2 fragment of the Ab1 anti-p53 antibodies was determined.

[9] = tested on: Ab2 of immunized C57BL/6 mice cross-reactive to PAb-246 and PAb-421; experiment: Absorption of Ab2 cross-reactivity by preincubation with anti-p53 antibodies; type: binding; settings: sera of immunized C57BL/6 mice preincubated with the antibody
Experimental: FIG. 2 is a graph showing cross-reactivity of C57BL/6 mouse Ab2 to PAb-246 and PAb-421. […] The mean percent inhibition (+SD) of the reactivity to PAb-246 or PAb-421 by preincubation is shown.
The Ab2 cross-reactivity of the C57BL/6 mice seemed to be limited to PAb-246 and PAb-421. To confirm the Ab2 cross-reactivity between PAb-246 and PAb-421, tests were conducted to determine whether preincubation with either of the anti-p53 antibodies could absorb out the cross-reactivity. […] The mean percent inhibition (+SD) of the reactivity to PAb-246 or PAb-421 by preincubation is shown.

T1 sequence (P02340 whole entry): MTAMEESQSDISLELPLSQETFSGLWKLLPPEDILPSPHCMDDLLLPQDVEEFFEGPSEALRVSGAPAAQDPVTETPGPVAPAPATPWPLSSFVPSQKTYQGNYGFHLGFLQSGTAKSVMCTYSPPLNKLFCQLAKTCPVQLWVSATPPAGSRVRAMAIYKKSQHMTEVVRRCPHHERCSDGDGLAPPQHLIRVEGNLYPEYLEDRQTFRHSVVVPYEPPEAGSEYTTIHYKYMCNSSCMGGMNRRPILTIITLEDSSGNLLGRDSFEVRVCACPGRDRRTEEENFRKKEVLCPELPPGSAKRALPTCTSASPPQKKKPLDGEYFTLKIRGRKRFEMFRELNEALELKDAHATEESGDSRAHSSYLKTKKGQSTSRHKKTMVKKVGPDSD

B1: PAb-421: monoclonal antibody (Ab1) against the C-terminal DNA-binding domain of murine p53; VH SEQ ID NO:2, VL SEQ ID NO:3 (antibody, listed as Mus sp., V domains shown)
VH: QVKLQESGAELVRSGASVKLSCTASGFNIKDYYMHWVKQRPEQGLEWIGWIDPENGDTEYAPKFQGKATMTADTSSNTAYLQLSSLASEDTAVYYCNFYGDALDYWGQGTTVTVSS
VL: DIQLTQSPLTLSVTIGQPASISCKSSQSLLDSDGKTYLNWLLQRPGQSPKRLIYLVSKLDSGVPDRFTGSGSGTDFTLKINRVEAEDLGVYYCWQGTHSPLTFGAGTKLK
modifications: BINDING (26)..(35) Complementary Determining Region; BINDING (24)..(39) Complementary Determining Region
- induction of Ab3 anti-p53 antibodies (FIG. 4A) ([1]; BALB/c mice): make anti-p53 antibodies
- induction of Ab3 anti-p53 antibodies (FIG. 4A) ([1]; C57BL/6 mice): make anti-p53 antibodies
- anti-DNA reactivity to single stranded calf thymus DNA (FIG. 3) [2]: High anti-DNA reactivity
- immunized mice that exhibited proteinuria ([3]; 80 BALB/c mice immunized with Ab1): about 95%
- development of lupus after Ab1 immunization ([3]; BALB/c mice): develop a lupus-like disease
- mice leukopenic (<4000 leukocytes per ml) and lymphopenic (<1200 lymphocyte per ml) ([3]; BALB/c mice immunized with Ab1): Seven out of ten
- development of lupus after Ab1 immunization ([3]; C57BL/6 mice): did not develop disease
- mice that developed significant titers of anti-histone antibodies [4]: About 30%
- anti-DNA antibodies in the Crithidia assay [5]: produced anti-DNA antibodies detectable by the Crithidia assay
- Ab3 antibodies to the p53 peptide epitope of PAb-421 (FIG. 5) ([6]; BALB/c mice): made antibodies to the peptide epitope of PAb-421
- Ab3 antibodies to the p53 peptide epitope of PAb-421 (FIG. 5) ([6]; C57BL/6 mice): did not make antibodies to the C-terminal p53 peptide
- anti-DNA Ab2 to the p53-responsive element (band shift) [7]: did not make such anti-DNA antibodies
- Ab2 anti-idiotypic response, specificity (FIG. 1) ([8]; BALB/c mice): made antibodies specific to PAb-421
- Ab2 anti-idiotypic response, specificity (FIG. 1) ([8]; C57BL/6 mice): cross-reacted to both PAb-246 and PAb-421
- absorption of Ab2 cross-reactivity between PAb-246 and PAb-421 by preincubation (FIG. 2) [9]: absorbed out significantly
